Target: T1, EB2 of mouse neurons and mouse brain, Q8R001
T1 chain: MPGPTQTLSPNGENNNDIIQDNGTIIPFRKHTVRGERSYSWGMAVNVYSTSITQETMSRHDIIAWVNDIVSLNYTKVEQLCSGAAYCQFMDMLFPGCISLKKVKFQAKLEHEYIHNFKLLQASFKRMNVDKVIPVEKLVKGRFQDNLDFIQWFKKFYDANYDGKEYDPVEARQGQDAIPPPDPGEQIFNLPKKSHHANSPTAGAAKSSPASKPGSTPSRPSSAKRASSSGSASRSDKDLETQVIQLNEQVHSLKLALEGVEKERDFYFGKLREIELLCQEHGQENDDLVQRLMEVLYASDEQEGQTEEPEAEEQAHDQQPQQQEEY

B1: mouse CDKL2 (endogenous) (protein)
chain: MEKYENLGLVGEGSYGMVMKCRNKDSGRIVAIKKFLESDDDKMVKKIAMREIKLLKQLRHENLVNLLEVCKKKKRWYLVFEFVDHTILDDLKLFPNGLDYQVVQKYLFQIINGIGFCHSHNIIHRDIKPENILVSQSGVVKLCDFGFARTLAAPGEVYTDYVATRWYRAPELLVGDVKYGKAVDIWAIGCLVIEMLMGQPLFPGESDIDQLHHIMTCLGNLIPRHQELFYKNPVFAGVRLPEVKDAEAEPLESRYPKLPEAVISLAKKCLHIDPDKRPFCADLLRHDFFQMDGFAERFSQELQLKIEKDARNNSLPKKSQNRKKEKDDALGEERKTLVVQDTNADPKIKDSKVFKVKGSKIDVEKMEKGSRASNANCLHDNGTNHKGLASTSLRDCSNVNIDHSRNPGTAIPPLTHNLSAVAPGINAGMGTIPGVQNYRVDEKTKKYCNPFVKPNQPPPAGIYNMNVSTSVSGEKYLLQANKKRKEYPKADVRLPELNYNHLPELRALEGIARNSRLIKKENKCLSESRIPSLAAIDLHVSSVASHQGAGSPLSDDSEADLPRMEHQH
okadaic acid dependent increase of pEB2/EB2 in CDKL5 KO primary neurons after CDKL2 shRNA knockdown: Both shRNAs caused a reduction of the OA dependent increase of pEB2/EB2

B2: hCDKL2 (cyclin dependent kinase like 2), 3xFLAG-TwinStrep tagged (protein)
chain: MEKYENLGLVGEGSYGMVMKCRNKDTGRIVAIKKFLESDDDKMVKKIAMREIKLLKQLRHENLVNLLEVCKKKKRWYLVFEFVDHTILDDLELFPNGLDYQVVQKYLFQIINGIGFCHSHNIIHRDIKPENILVSQSGVVKLCDFGFARTLAAPGEVYTDYVATRWYRAPELLVGDVKYGKAVDVWAIGCLVTEMFMGEPLFPGDSDIDQLYHIMMCLGNLIPRHQELFNKNPVFAGVRLPEIKEREPLERRYPKLSEVVIDLAKKCLHIDPDKRPFCAELLHHDFFQMDGFAERFSQELQLKVQKDARNVSLSKKSQNRKKEKEKDDSLVEERKTLVVQDTNADPKIKDYKLFKIKGSKIDGEKAEKGNRASNASCLHDSRTSHNKIVPSTSLKDCSNVSVDHTRNPSVAIPPLTHNLSAVAPSINSGMGTETIPIQGYRVDEKTKKCSIPFVKPNRHSPSGIYNINVTTLVSGPPLSDDSGADLPQMEHQH
phospho-Ser222 EB2 in transfected CDKL5 KO primary cortical neurons: pS222 EB2 is specifically increased in the neurons that express these kinases

B3: hICK, 3xFLAG-TwinStrep tagged (protein)
chain: MNRYTTIRQLGDGTYGSVLLGRSIESGELIAIKKMKRKFYSWEECMNLREVKSLKKLNHANVVKLKEVIRENDHLYFIFEYMKENLYQLIKERNKLFPESAIRNIMYQILQGLAFIHKHGFFHRDLKPENLLCMGPELVKIADFGLAREIRSKPPYTDYVSTRWYRAPEVLLRSTNYSSPIDVWAVGCIMAEVYTLRPLFPGASEIDTIFKICQVLGTPKKTDWPEGYQLSSAMNFRWPQCVPNNLKTLIPNASSEAVQLLRDMLQWDPKKRPTASQALRYPYFQVGHPLGSTTQNLQDSEKPQKGILEKAGPPPYIKPVPPAQPPAKPHTRISSRQHQASQPPLHLTYPYKAEVSRTDHPSHLQEDKPSPLLFPSLHNKHPQSKITAGLEHKNGEIKPKSRRRWGLISRSTKDSDDWADLDDLDFSPSLSRIDLKNKKRQSDDTLCRFESVLDLKPSEPVGTGNSAPTQTSYQRRDTPTLRSAAKQHYLKHSRYLPGISIRNGILSNPGKEFIPPNPWSSSGLSGKSSGTMSVISKVNSVGSSSTSSSGLTGNYVPSFLKKEIGSAMQRVHLAPIPDPSPGYSSLKAMRPHPGRPFFHTQPRSTPGLIPRPPAAQPVHGRTDWASKYASRR
phospho-Ser222 EB2 in transfected CDKL5 KO primary cortical neurons: pS222 EB2 is specifically increased in the neurons that express these kinases

B4: CDKL5 (recombinantly expressed) (protein)
chain: MKIPNIGNVMNKFEILGVVGEGAYGVVLKCRHKETHEIVAIKKFKDSEENEEVKETTLRELKMLRTLKQENIVELKEAFRRRGKLYLVFEYVEKNMLELLEEMPNGVPPEKVKSYIYQLIKAIHWCHKNDIVHRDIKPENLLISHNDVLKLCDFGFARNLSEGNNANYTEYVATRWYRSPELLLGAPYGKSVDMWSVGCILGELSDGQPLFPGESEIDQLFTIQKVLGPLPSEQMKLFYSNPRFHGLRFPAVNHPQSLERRYLGILNSVLLDLMKNLLKLDPADRYLTEQCLNHPTFQTQRLLDRSPSRSAKRKPYHVESSTLSNRNQAGKSTALQSHHRSNSKDIQNLSVGLPRADEGLPANESFLNGNLAGASLSPLHTKTYQASSQPGSTSKDLTNNNIPHLLSPKEAKSKTEFDFNIDPKPSEGPGTKYLKSNSRSQQNRHSFMESSQSKAGTLQPNEKQSRHSYIDTIPQSSRSPSYRTKAKSHGALSDSKSVSNLSEARAQIAEPSTSRYFPSSCLDLNSPTSPTPTRHSDTRTLLSPSGRNNRNEGTLDSRRTTTRHSKTMEELKLPEHMDSSHSHSLSAPHESFSYGLGYTSPFSSQQRPHRHSMYVTRDKVRAKGLDGSLSIGQGMAARANSLQLLSPQPGEQLPPEMTVARSSVKETSREGTSSFHTRQKSEGGVYHDPHSDDGTAPKENRHLYNDPVPRRVGSFYRVPSPRPDNSFHENNVSTRVSSLPSESSSGTNHSKRQPAFDPWKSPENISHSEQLKEKEKQGFFRSMKKKKKKSQTVPNSDSPDLLTLQKSIHSASTPSSRPKEWRPEKISDLQTQSQPLKSLRKLLHLSSASNHPASSDPRFQPLTAQQTKNSFSEIRIHPLSQASGGSSNIRQEPAPKGRPALQLPGQMDPGWHVSSVTRSATEGPSYSEQLGAKSGPNGHPYNRTNRSRMPNLNDLKETAL
phospho-Ser222 EB2 in transfected CDKL5 KO primary cortical neurons: pS222 EB2 is specifically increased in the neurons that express these kinases

B5: mouse CDKL5 (endogenous) (protein)
chain: MKIPNIGNVMNKFEILGVVGEGAYGVVLKCRHKETHEIVAIKKFKDSEENEEVKETTLRELKMLRTLKQENIVELKEAFRRRGKLYLVFEYVEKNMLELLEEMPNGVPPEKVKSYIYQLIKAIHWCHKNDIVHRDIKPENLLISHNDVLKLCDFGFARNLSEGNNANYTEYVATRWYRSPELLLGAPYGKSVDMWSVGCILGELSDGQPLFPGESEIDQLFTIQKVLGPLPSEQMKLFYSNPRFHGLRFPAVNHPQSLERRYLGILNSVLLDLMKNLLKLDPADRYLTEQCLNHPTFQTQRLLDRSPSRSTKRKPYHVESSTLSNRNQSTKGAALQTHHRSNSKDIQNLSVGLPRAEEGLPANESFLNGNLAGATLSPMHTKTYQASTQPGSSSKDLTNNNIPHLLSPKEAKSKTEFDFNIDTKPSEGPGTKYLKSSTRSQQNRHSFMESSQSKAGTLQPSEKQSRHSYIDTIPQSSRSPSYRTKAKSHGALSDSKSVSNLSEARAQITETNTSRYFPSSCLDLNSPTSPTPTRHTDTRTLLSPSGRNNRNEGTLDSRRTTTRHSKTMEELKLPEHMDSSHSHSLSAPHESFSYGLGYTSPFSSQQRPHRHSMYVTRDKVRAKGLDGSLSIGQGMAARANSLQLLSPQPGEQLPPEMTVARPSVKESSREGASSFHTRQKSEGGVYHDPHSDDGTAPKENRHLYNDPVPRRVGSFYRVPSPRPDNSFHENNVSTRVSSLPSDSSSGTNHSKRQPGFDPWKSPENISHADQLKEKEKQGFFRSMKKKKKKTQTVPNTDGPDLLTLQKAIHSSSTASSRPKEWRPEKLSDLQTQSQPLKSLRKLLHLSSSTNHPASSDPRFQPLTAQQAKNSFSEIRIHPLSQATGGSSNIRQEPTPKGRPALQLPGSSLLRYNGWKHSRSRSSQPDEVIFLASHEKWKQ
pS222 EB2 in primary cortical cultures of CDKL5 KO against wild type littermates: pS222 EB2 is much lower in CDKL5 KOs
